Changes are numbered by the printed parent chain.

In one assay the target is T1, Human ROR1-ECD (human, UniProt Q01973 30-406).
T1 construct: extracellular domain; Analyte in the Fortebio Octet assay; also called ROR1-derived extracellular domain fragment
The assay is described as follows: BLI (Fortebio Octet RED96), mAb on AHC biosensor, human ROR1-ECD as analyte. The method, then: Human ROR1-ECD was diluted in KB buffer (0.1% BSA, 0.05% Tween 20, 1×PBS, pH 7.4) to various concentrations (from about 500 nM to about 62.5 nM), and the mAb was also diluted in KB buffer to 10 μg/mL. The mAb was loading to anti-hIgG Fc Capture (AHC) Biosensors (PALL, Fortebio), and the diluted Human ROR1-ECD was associated with Mab, then dissociated in KB buffer. Association (k-on) and dissociation (k-off) rate constants were calculated based on a 1:1 Langmuir binding model using Fortebio Date Analysis 7.1 software (PALL, Fortebio).

Assay [1] addresses T2, human ROR1 expressed on CHO-K1 cells (human, UniProt Q01973 30-937).
T2 construct: whole, on cells; also called CHO-K1-ROR1
Briefly: flow cytometry on CHO-K1-ROR1 cells, PE anti-human IgG-Fc. The method, then: CHO-K1 cell line was transduced with lentivector carrying human ROR1. CHO-K1-ROR1 cells were resuspended in FACS buffer and Fc receptors were blocked prior to incubation with purified ROR1 mAbs. 5×10⁵ cells in 100 μL FACS buffer were aliquoted to separate tubes and the purified mAb was added. Antibody concentration is from about 30 μg/mL to about 0.000508 μg/mL. Cells were incubated at 4 degrees for 1 hour, then washed twice with excess FACS buffer. Cells were resuspended in 100 μL FACS buffer and 0.5 μg of anti-human IgG-Fc (PE) secondary antibody (ab98596) was added to samples, incubated for 30 minutes and washed twice with excess FACS buffer.

T1 sequence (Q01973 30-406): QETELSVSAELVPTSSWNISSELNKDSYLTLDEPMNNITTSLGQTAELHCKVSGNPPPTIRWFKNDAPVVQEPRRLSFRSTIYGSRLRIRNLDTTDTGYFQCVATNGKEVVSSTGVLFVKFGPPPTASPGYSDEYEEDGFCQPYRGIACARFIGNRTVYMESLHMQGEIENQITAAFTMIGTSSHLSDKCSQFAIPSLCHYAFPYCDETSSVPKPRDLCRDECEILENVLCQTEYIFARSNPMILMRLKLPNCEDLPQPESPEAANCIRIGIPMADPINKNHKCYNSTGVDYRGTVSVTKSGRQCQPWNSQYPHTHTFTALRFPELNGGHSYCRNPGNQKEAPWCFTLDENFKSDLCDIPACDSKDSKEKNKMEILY
T2 sequence (Q01973 30-937): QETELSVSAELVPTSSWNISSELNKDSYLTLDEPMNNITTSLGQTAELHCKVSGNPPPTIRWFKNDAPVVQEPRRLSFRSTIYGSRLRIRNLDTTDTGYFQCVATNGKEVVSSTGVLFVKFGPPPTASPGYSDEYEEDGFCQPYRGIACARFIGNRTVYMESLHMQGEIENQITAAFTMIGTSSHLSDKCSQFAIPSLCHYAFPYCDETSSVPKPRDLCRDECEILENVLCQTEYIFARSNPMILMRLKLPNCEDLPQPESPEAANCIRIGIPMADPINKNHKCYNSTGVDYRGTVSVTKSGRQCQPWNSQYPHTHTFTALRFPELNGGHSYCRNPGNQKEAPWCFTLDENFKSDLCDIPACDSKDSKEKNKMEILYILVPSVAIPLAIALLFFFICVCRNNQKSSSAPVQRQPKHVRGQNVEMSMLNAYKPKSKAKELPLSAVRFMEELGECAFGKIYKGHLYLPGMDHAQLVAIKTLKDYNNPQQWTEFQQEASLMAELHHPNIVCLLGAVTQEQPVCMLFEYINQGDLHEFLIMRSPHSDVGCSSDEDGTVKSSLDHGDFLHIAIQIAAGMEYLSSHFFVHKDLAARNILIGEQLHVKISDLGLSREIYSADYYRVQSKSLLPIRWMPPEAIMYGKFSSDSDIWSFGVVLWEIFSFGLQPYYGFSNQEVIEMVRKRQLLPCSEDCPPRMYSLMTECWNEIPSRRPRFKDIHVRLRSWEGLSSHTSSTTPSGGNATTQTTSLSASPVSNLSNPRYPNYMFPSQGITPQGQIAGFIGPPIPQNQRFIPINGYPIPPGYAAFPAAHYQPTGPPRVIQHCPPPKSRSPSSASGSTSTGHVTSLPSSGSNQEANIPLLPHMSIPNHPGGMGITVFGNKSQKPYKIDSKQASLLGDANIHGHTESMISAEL

B1: anti-ROR1 antibody clone G6 (antibody, V domains shown)
VH: EVQLVESGGGVVQPGGSLRLSCAASGFTFDDYAMHWVRQAPGKGLEWVSLISGDGGSTYYADSVKGRFTISRDNAKNSLYLQMNSLRAEDTAVYYCARDNWNDVYYYYGMDVWGQGTTVTVSS
VL: DIQLTQSPSSLSASIGDTVTISCQASRDISDYLNWYQHKPGKAPKLLIYDASNLATGVPSRFSGSGSGTDFTLTIKSLQPEDVATYFCQQDDLLPLTFGGGTKVDIK
Turning to B1, the binding result (in the assay with Human ROR1-ECD; in assay [1]) was “binds” in each case.

B2: anti-ROR1 antibody clone C3 (antibody, V domains shown)
VH: QVQLQESGPGLVKPSETLSLTCTVSGGSISSYYWSWIRQLPGKGLEWIGYMHYSGSTSYNPSLKGRLTISVDTSTNQFSLKLGSVTAADTAVYYCARYYYHDSSGYYSYFDYWGQGTLVTVSS
VL: EIVLTQSPGTLSLSPGERATLSCRASQSVSSYLAWYQQKAGQAPRLLIYDASNRASGIPARFSGSGSGTDFTLTISSLEPEDFAVYYCQQRSNWPPTFGGGTKVEIK
notes: also called anti-ROR1 (clone C3)
In the case of B2, the binding result (in the assay with Human ROR1-ECD; in assay [1]) was “binds” each time.

B3: anti-ROR1 antibody clone G3 (antibody, V domains shown)
VH: QVQLQQWGAGLLKPSETLSLTCAVYGGSFSGYYWSWIRQPPGKGLEWIGEINHSGSTSYNPSLKSRVTISVDTSKNQFSLKLSSVTAADTAVYYCARGHSSGWYRRYFDLWGRGTLVTVSS
VL: B2 VL with G9A, A40P, S56T, R61K
As to B3, the binding result (with Human ROR1-ECD; in assay [1]) was “binds” in each case.

Values taken from US20220356246A1 (NANJING IMMUNOPHAGE BIOTECH, published 2022).
